Measured values published in paper PMC8113585 (2020).

Target: SARS-CoV-2 full-length nucleocapsid (N) protein (N-FL: 1-419) (SARS-CoV-2, UniProt P0DTC9 1-419)
Assay: ELISA

B1: human monoclonal antibody nCoV396, recombinant IgG1 (antibody, V domains shown)
VH: QVQLVESGGGVVQPGRSLRLSCAASGFTFSSYIMHWVRQAPGKGLEWVAVISYDGSNEAYADSVKGRFTISRDNSKNTLYLQMSSLRAEDTGVYYCARETGDYSSSWYDSWGRGTLVTVSS
VL: QLVLTQSPSASASLGASVKLTCTLSSGHSNYAIAWHQQQPEKGPRYLMKVNSDGSHTKGDGIPDRFSGSSSGAERYLTISSLQSEDEADYYCQTWGTGIQVFGGGTKLTVL
How did the EC50 turn out when B1 was run?
The EC50 was 3.2 ng/mL.
